Test results reported in patent publication US20240209095A1 (published 2024).

Target: PDL1-hFc (UniProt Q9NZQ7 19-238)
Assay: ELISA

PDL1-hFc, sequence (Q9NZQ7 19-238): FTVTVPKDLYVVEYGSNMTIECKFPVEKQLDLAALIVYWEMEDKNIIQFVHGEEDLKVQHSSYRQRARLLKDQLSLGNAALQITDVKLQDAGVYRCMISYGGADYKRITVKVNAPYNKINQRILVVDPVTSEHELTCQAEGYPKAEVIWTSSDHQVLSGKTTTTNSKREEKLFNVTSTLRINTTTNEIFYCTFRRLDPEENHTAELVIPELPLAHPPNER

- Kd: 0.0666 nM
B1: mouse-human chimera 3C3 MM (antibody, V domains shown)
VH: EVQLQESGPGLTKPSQTLSLTCSVTGYSITSDYWDWIRKFPGNKLEYMGYISYTGSTYYNPSLRSRISITRDTSKNQYYLQLSSVTSEDSATYYCARRGGWLSPFVYWGQGTLVTVSA
VL: DTVMSQSPSSLGVSVGERVTLTCKSRQSLLFSSNQKNSLAWYQQKPGQSPKLLIYWASTRESGVPDRFTGSGSGTDFTLTISSVKSEDLAVYYCQQYYTYPFTFGAGTSLELK
